# Reference: IntAct's records for PubMed 19536132
# B1: Conserved oligomeric Golgi complex subunit 4 (Homo sapiens), Q9H9E3 (parent)
# chain: MADLDSPPKLSGVQQPSEGVGGGRCSEISAELIRSLTELQELEAVYERLCGEEKVVERELDALLEQQNTIESKMVTLHRMGPNLQLIEGDAKQLAGMITFTCNLAENVSSKVRQLDLAKNRLYQAIQRADDILDLKFCMDGVQTALRSEDYEQAAAHTHRYLCLDKSVIELSRQGKEGSMIDANLKLLQEAEQRLKAIVAEKFAIATKEGDLPQVERFFKIFPLLGLHEEGLRKFSEYLCKQVASKAEENLLMVLGTDMSDRRAAVIFADTLTLLFEGIARIVETHQPIVETYYGPGRLYTLIKYLQVECDRQVEKVVDKFIKQRDYHQQFRHVQNNLMRNSTTEKIEPRELDPILTEVTLMNARSELYLRFLKKRISSDFEVGDSMASEEVKQEHQKCLDKLLNNCLLSCTMQELIGLYVTMEEYFMRETVNKAVALDTYEKGQLTSSMVDDVFYIVKKCIGRALSSSSIDCLCAMINLATTELESDFRDVLCNKLRMGFPATTFQDIQRGVTSAVNIMHSSLQQGKFDTKGIESTDEAKMSFLVTLNNVEVCSENISTLKKTLESDCTKLFSQGIGGEQAQAKFDSCLSDLAAVSNKFRDLLQEGLTELNSTAIKPQVQPWINSFFSVSHNIEEEEFNDYEANDPWVQQFILNLEQQMAEFKASLSPVIYDSLTGLMTSLVAVELEKVVLKSTFNRLGGLQFDKELRSLIAYLTTVTTWTIRDKFARLSQMATILNLERVTEILDYWGPNSGPLTWRLTPAEVRQVLALRIDFRSEDIKRLRL
# Variants of: B1
# Conditions: with scfd1_human SCFD1, Q8WVM8
# Sequence of scfd1_human SCFD1, Q8WVM8 (Q8WVM8 whole entry, looked up): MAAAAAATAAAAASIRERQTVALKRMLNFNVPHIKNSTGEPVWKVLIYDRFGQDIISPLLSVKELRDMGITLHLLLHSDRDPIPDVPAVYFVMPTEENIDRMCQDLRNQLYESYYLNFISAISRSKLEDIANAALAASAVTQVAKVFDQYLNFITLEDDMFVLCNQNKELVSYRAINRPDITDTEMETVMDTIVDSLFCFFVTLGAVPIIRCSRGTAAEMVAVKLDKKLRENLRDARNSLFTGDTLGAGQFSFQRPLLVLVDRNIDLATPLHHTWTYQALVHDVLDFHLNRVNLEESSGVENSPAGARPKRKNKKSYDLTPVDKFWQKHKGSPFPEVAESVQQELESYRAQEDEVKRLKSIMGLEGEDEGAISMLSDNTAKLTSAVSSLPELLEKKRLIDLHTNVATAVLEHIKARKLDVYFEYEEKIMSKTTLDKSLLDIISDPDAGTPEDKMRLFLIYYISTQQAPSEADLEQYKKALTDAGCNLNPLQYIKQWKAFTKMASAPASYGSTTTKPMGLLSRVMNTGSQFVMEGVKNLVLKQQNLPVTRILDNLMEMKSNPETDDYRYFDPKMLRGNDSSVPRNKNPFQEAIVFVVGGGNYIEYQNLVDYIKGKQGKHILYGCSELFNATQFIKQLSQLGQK
row,Variant,effect of a mutation on the interaction
1,E53A,decreasing interaction

# Variants of: B1
# Conditions: with scfd1_human SCFD1, Q8WVM8
# Remark: another data set of the same source
row,Variant,effect of a mutation on the interaction
1,E53A,disrupting interaction
2,E71A,disrupting interaction
